Test results taken from the supplement of paper PMC9112550, “Optimization of the antimicrobial peptide Bac7 by deep mutational scanning” (BMC Biology, 2022).

system: Escherichia coli TOP10; test: shrunken log2 fold change of peptide-encoding DNA abundance (4.5 h post-induction vs induction); higher = less antimicrobial activity (less host growth inhibition); conditions: time post-induction: 4.5 h; library: site-saturation at positions 5, 18, 19, 20
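Note: peptides expressed intracellularly from a pBAD plasmid library in pooled LB shake-flask culture, induced with 0.3% L-arabinose, DNA abundance read by NGS, three biological replicates, DESeq2 with apeglm shrinkage.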

Sequence	shrunken log2 fold change
RRIRCRPPRLPRPRPRPNLHPRP	-0.619
RRIRFRPPRLPRPRPRPIDHPRP	-0.0746
RRIRQRPPRLPRPRPRPMVHPRP	-0.0226
RRIRLRPPRLPRPRPRPHTWPRP	-0.202
RRIRFRPPRLPRPRPRPHEGPRP	0.0417
RRIRNRPPRLPRPRPRPHQDPRP	-0.297
RRIRERPPRLPRPRPRPNLFPRP	0.0891
RRIRPRPPRLPRPRPRPTNLPRP	-0.107
RRIRDRPPRLPRPRPRPGKTPRP	-0.00088
RRIRARPPRLPRPRPRPCYRPRP	-0.141
RRIRKRPPRLPRPRPRPTDPPRP	0.0238
RRIRKRPPRLPRPRPRPAMTPRP	0.596
RRIRLRPPRLPRPRPRPNSPPRP	-0.418
RRIRLRPPRLPRPRPRPPFQPRP	0.0582
RRIRTRPPRLPRPRPRPNIIPRP	-1.01
RRIRERPPRLPRPRPRPVLQPRP	-0.347
RRIRRRPPRLPRPRPRPVTDPRP	0.0723
RRIRRRPPRLPRPRPRPCNGPRP	-0.199
RRIRQRPPRLPRPRPRPATQPRP	0.176
RRIRQRPPRLPRPRPRPAQFPRP	0.237
RRIRLRPPRLPRPRPRPQCWPRP	-0.0159
RRIRSRPPRLPRPRPRPQRRPRP	0.21
RRIRTRPPRLPRPRPRPYDGPRP	-0.0303
RRIRNRPPRLPRPRPRPMSWPRP	-0.549
RRIRVRPPRLPRPRPRPFCDPRP	-0.218

Sequence	shrunken log2 fold change
RRIRPRPPRLPRPRPRPSRMPRP	-0.114
RRIRYRPPRLPRPRPRPVYCPRP	-0.416
RRIRQRPPRLPRPRPRPKSDPRP	-0.2
RRIRDRPPRLPRPRPRPVAHPRP	-0.0445
RRIRWRPPRLPRPRPRPEAAPRP	1.76
RRIRGRPPRLPRPRPRPMNKPRP	1.69
RRIRVRPPRLPRPRPRPNHHPRP	-0.373
RRIRCRPPRLPRPRPRPPFKPRP	0.313
RRIRQRPPRLPRPRPRPMKQPRP	-0.0134
RRIRSRPPRLPRPRPRPQSWPRP	0.722
RRIRTRPPRLPRPRPRPDLCPRP	0.144
RRIRERPPRLPRPRPRPMQIPRP	-0.0552
RRIRARPPRLPRPRPRPFQHPRP	-0.162
RRIRQRPPRLPRPRPRPLFVPRP	-0.495
RRIRPRPPRLPRPRPRPQPYPRP	-0.177
RRIRFRPPRLPRPRPRPPCEPRP	0.409
RRIRPRPPRLPRPRPRPPVPPRP	0.564
RRIRHRPPRLPRPRPRPEFGPRP	0.308
RRIRSRPPRLPRPRPRPCGYPRP	-0.00214
RRIRKRPPRLPRPRPRPEEAPRP	3.85
RRIRPRPPRLPRPRPRPIGEPRP	-0.0647
RRIRARPPRLPRPRPRPSAKPRP	0.471
RRIRIRPPRLPRPRPRPGSMPRP	-0.501
RRIRWRPPRLPRPRPRPDFPPRP	-0.0386
RRIRFRPPRLPRPRPRPEYTPRP	-0.0548

Sequence	shrunken log2 fold change
RRIRIRPPRLPRPRPRPPNHPRP	-0.475
RRIRSRPPRLPRPRPRPCMFPRP	-0.258
RRIRTRPPRLPRPRPRPHDEPRP	0.00408
RRIRPRPPRLPRPRPRPRSNPRP	-0.247
RRIRRRPPRLPRPRPRPVEHPRP	0.0989
RRIRNRPPRLPRPRPRPNWHPRP	-0.111
RRIRLRPPRLPRPRPRPYMFPRP	-0.123
RRIRVRPPRLPRPRPRPTYDPRP	-0.372
RRIRARPPRLPRPRPRPKYQPRP	-0.112
RRIRPRPPRLPRPRPRPRQQPRP	0.13
RRIRMRPPRLPRPRPRPILEPRP	0.142
RRIRNRPPRLPRPRPRPIKFPRP	-0.165
RRIRDRPPRLPRPRPRPPAEPRP	0.525
RRIRTRPPRLPRPRPRPHHQPRP	-0.272
RRIRTRPPRLPRPRPRPAPKPRP	0.371
RRIRKRPPRLPRPRPRPFVSPRP	-0.176
RRIRTRPPRLPRPRPRPMSEPRP	-0.00136
RRIRARPPRLPRPRPRPDTWPRP	1.13
RRIRGRPPRLPRPRPRPDHAPRP	0.217
RRIRFRPPRLPRPRPRPIELPRP	-0.537
RRIRHRPPRLPRPRPRPGFKPRP	-0.206
RRIRWRPPRLPRPRPRPKGLPRP	-0.0645
RRIRGRPPRLPRPRPRPRWPPRP	0.973
RRIRMRPPRLPRPRPRPCALPRP	0.738
RRIRWRPPRLPRPRPRPESRPRP	0.323

Sequence	shrunken log2 fold change
RRIRFRPPRLPRPRPRPQCEPRP	0.0491
RRIRMRPPRLPRPRPRPNPMPRP	0.568
RRIRVRPPRLPRPRPRPPAYPRP	0.0576
RRIRKRPPRLPRPRPRPDYEPRP	-0.164
RRIRPRPPRLPRPRPRPPLKPRP	0.441
RRIRIRPPRLPRPRPRPNWGPRP	-0.205
RRIRLRPPRLPRPRPRPQVKPRP	-0.319
RRIRSRPPRLPRPRPRPESEPRP	0.0793
RRIRTRPPRLPRPRPRPKAQPRP	-0.0875
RRIRGRPPRLPRPRPRPGEGPRP	1.15
RRIRARPPRLPRPRPRPACGPRP	0.582
RRIRIRPPRLPRPRPRPNAVPRP	-0.266
RRIRMRPPRLPRPRPRPGHAPRP	2.85
RRIRTRPPRLPRPRPRPESVPRP	-0.0229
RRIRMRPPRLPRPRPRPILHPRP	-0.378
RRIRIRPPRLPRPRPRPQMAPRP	-0.064
RRIRKRPPRLPRPRPRPIMWPRP	0.0599
RRIRMRPPRLPRPRPRPEIYPRP	0.106
RRIRPRPPRLPRPRPRPRGHPRP	0.0129
RRIRKRPPRLPRPRPRPPRCPRP	0.578
RRIRCRPPRLPRPRPRPVHMPRP	0.0385
RRIRYRPPRLPRPRPRPHFLPRP	-0.13
RRIRCRPPRLPRPRPRPLQKPRP	-0.0859
RRIRHRPPRLPRPRPRPLAQPRP	0.00325
RRIRVRPPRLPRPRPRPPQFPRP	0.146

Sequence	shrunken log2 fold change
RRIRYRPPRLPRPRPRPSPEPRP	-0.458
RRIRPRPPRLPRPRPRPVHKPRP	-0.0637
RRIRVRPPRLPRPRPRPPAKPRP	0.603
RRIRFRPPRLPRPRPRPTSEPRP	0.0114
RRIRCRPPRLPRPRPRPRCQPRP	-0.146
RRIRQRPPRLPRPRPRPFKMPRP	-0.217
RRIRDRPPRLPRPRPRPDEAPRP	0.12
RRIRFRPPRLPRPRPRPMRSPRP	0.904
RRIRERPPRLPRPRPRPSCGPRP	0.0151
RRIRQRPPRLPRPRPRPVEQPRP	0.0359
RRIRFRPPRLPRPRPRPRCWPRP	0.309
RRIRGRPPRLPRPRPRPRWNPRP	0.423
RRIRHRPPRLPRPRPRPLDYPRP	-0.0824
RRIRERPPRLPRPRPRPYMDPRP	-0.534
RRIRQRPPRLPRPRPRPDHPPRP	-0.0816
RRIRPRPPRLPRPRPRPRFPPRP	0.233
RRIRSRPPRLPRPRPRPQKEPRP	0.052
RRIRYRPPRLPRPRPRPWMDPRP	-0.159
RRIRDRPPRLPRPRPRPLPAPRP	0.574
RRIRCRPPRLPRPRPRPREKPRP	1.12
RRIRVRPPRLPRPRPRPDIIPRP	-0.35
RRIRCRPPRLPRPRPRPPWAPRP	0.317
RRIRPRPPRLPRPRPRPAQGPRP	0.156
RRIRTRPPRLPRPRPRPWPHPRP	-0.091
RRIRIRPPRLPRPRPRPIVGPRP	0.00911

Sequence	shrunken log2 fold change
RRIRRRPPRLPRPRPRPWAHPRP	0.0718
RRIRDRPPRLPRPRPRPDWWPRP	0.0503
RRIRARPPRLPRPRPRPDFHPRP	-0.0502
RRIRRRPPRLPRPRPRPNLSPRP	-0.0897
RRIRLRPPRLPRPRPRPAFAPRP	0.368
RRIRWRPPRLPRPRPRPWDTPRP	0.0106
RRIRCRPPRLPRPRPRPLPHPRP	0.102
RRIRCRPPRLPRPRPRPRSAPRP	0.0532
RRIRQRPPRLPRPRPRPFSMPRP	-0.0842
RRIRVRPPRLPRPRPRPIALPRP	-0.238
RRIRRRPPRLPRPRPRPSWDPRP	-0.102
RRIRWRPPRLPRPRPRPMAVPRP	0.173
RRIRRRPPRLPRPRPRPHLPPRP	0.141
RRIRIRPPRLPRPRPRPEFMPRP	-0.25
RRIRDRPPRLPRPRPRPYSPPRP	0.0205
RRIRRRPPRLPRPRPRPQFFPRP	-0.259
RRIRRRPPRLPRPRPRPLQEPRP	0.019
RRIRRRPPRLPRPRPRPYGCPRP	-0.00402
RRIRMRPPRLPRPRPRPYLCPRP	-0.165
RRIRCRPPRLPRPRPRPCHHPRP	-0.332
RRIRVRPPRLPRPRPRPPGLPRP	0.373
RRIRRRPPRLPRPRPRPVGKPRP	-0.105
RRIRARPPRLPRPRPRPHWDPRP	0.116
RRIRSRPPRLPRPRPRPHTTPRP	-0.0736
RRIRMRPPRLPRPRPRPGAKPRP	1.48
